Data as given in PMC6629437 (Cell, 2019).

Legend:
[1] = molecular target: T1, HA head domain of H1 A/Solomon Islands/3/2006 (Influenza A virus A/Solomon …, strain); assay: BLI
T1 chain: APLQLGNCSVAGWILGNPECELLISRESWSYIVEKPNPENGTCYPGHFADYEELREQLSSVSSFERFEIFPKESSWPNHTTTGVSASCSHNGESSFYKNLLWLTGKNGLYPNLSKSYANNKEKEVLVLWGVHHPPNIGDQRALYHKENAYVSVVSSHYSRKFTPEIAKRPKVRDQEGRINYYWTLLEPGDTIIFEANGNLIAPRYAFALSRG

[2] = molecular target: H1 HA of A/California/04/2009, His-tagged soluble HA (competition assay) (Influenza A virus A/California/04/2009 …, UniProt C3W5S1, strain); assay: BLI
[3] = molecular target: HA head domain of H3 A/Victoria/361/2011 (Influenza A virus A/Victoria/361/2011 …, UniProt A0A097PF39, strain); assay: BLI
[4] = molecular target: HA head domain of H7 A/Shanghai/02/2013 (Influenza A virus A/Shanghai/02/2013 …, UniProt R4NN21, strain); assay: BLI
[5] = molecular target: monomeric HA head domain of H5 A/Vietnam/1203/2004 (Influenza A virus A/Vietnam/1203/2004 …, UniProt Q5EP31, strain); assay: HDX-MS
[6] = molecular target: H7 HA of A/New York/107/2003 (Influenza A virus A/New York/107/2003 …, UniProt B2LVD7, strain); assay: ELISA
[7] = molecular target: H5 HA of A/Indonesia/5/2005 (Influenza A virus A/Indonesia/5/2005 …, UniProt A5A5L7, strain); assay: ELISA
[8] = molecular target: H1 HA of A/Texas/36/1991 (Influenza A virus A/Texas/36/1991 (H1N1), UniProt Q6WG02, strain); assay: ELISA
[9] = molecular target: H1 HA0 trimer of A/California/04/2009 (uncleaved, baculovirus-expressed ectodomain) (influenza A virus A/California/04/2009 …); assay: BLI
[10] = molecular target: H7 HA0 trimer of A/Shanghai/02/2013 (uncleaved, baculovirus-expressed ectodomain) (Influenza A virus A/Shanghai/02/2013 …, UniProt R4NN21, strain); assay: BLI
[11] = molecular target: HA head domain of H3 A/Hong Kong/1/1968 (Influenza A virus A/Hong Kong/1/1968 …, strain); assay: crystal structure

Measured: binding result

B1: FluA-20 IgG (hybridoma-generated) (antibody, V domains shown)
VH: QVQLEESGPGLVKPSETLSLTCSVSGVSVTSDIYYWTWIRQPPGKGLEWIGYIFYNGDTNYNPSLKSRVTMSIDTSKNEFSLRLTSVTAADTAVYFCARGTEDLGYCSSGSCPNHWGQGTLVTVSS
VL: DIVMTQSPSSLSASIGDRVTITCRPSQNIRSFLNWFQHKPGKAPKLLIYAASNLQSGVPSRFSGSGSGTEFTLTIRSLQPEDFATYYCQQSYNTPPTFGQGTKVEIK
binds: [1] | [2] | [3] | [4] | [5] | [6]

B2: rFluA-20 IgG (recombinant FluA-20 IgG) (antibody, V domains shown)
VH: QVQLEESGPGLVKPSETLSLTCSVSGVSVTSDIYYWTWIRQPPGKGLEWIGYIFYNGDTNYNPSLKSRVTMSIDTSKNEFSLRLTSVTAADTAVYFCARGTEDLGYCSSGSCPNHWGQGTLVTVSS
VL: DIVMTQSPSSLSASIGDRVTITCRPSQNIRSFLNWFQHKPGKAPKLLIYAASNLQSGVPSRFSGSGSGTEFTLTIRSLQPEDFATYYCQQSYNTPPTFGQGTKVEIK
binds: [7] | [8] | [6]

B3: rFluA-20 Fab (Fab, V domains shown)
VH: QVQLEESGPGLVKPSETLSLTCSVSGVSVTSDIYYWTWIRQPPGKGLEWIGYIFYNGDTNYNPSLKSRVTMSIDTSKNEFSLRLTSVTAADTAVYFCARGTEDLGYCSSGSCPNHWGQGTLVTVSS
VL: DIVMTQSPSSLSASIGDRVTITCRPSQNIRSFLNWFQHKPGKAPKLLIYAASNLQSGVPSRFSGSGSGTEFTLTIRSLQPEDFATYYCQQSYNTPPTFGQGTKVEIK
binds: [9] | [10] | [11]
